In patent US20090170219:

System: IgG Fc fragment (IgG-Fc) (human), P01857-1
Test: SPR
Details: 2'-F at all pyrimidines; solution A

Sequence	Kd
GGGACACAAUGGACGAAAGGUGCUCCAACUAAAUUUGGAACUUUCCACCCAUAAUAACGGCCGACAUGAGAG [SEQ ID NO:8]	7000 pM
GGGACACAAUGGACGACUACAAGGUGCUCCUUGAAAUGUUAAAUGAGGAACUUGUAACGGCCGACAUGAGAG [SEQ ID NO:5]	0.6 pM
GGGACACAAUGGACGAGUUACAGGUGCUCCAUCAACAAAAUGUUACAUGGAACUGUAACGGCCGACAUGAGAG [SEQ ID NO:1]	1.1 pM
GGGACACAAUGGACGGCCAACGUUAACUGGAACUGUAAAUCAGGUGCUCGAGAUAACGGCCGACAUGAGAG [SEQ ID NO:4]	6 pM
GGGACACAAUGGACGGCGUAAAAUGGAACCUGGGUUAGAAUAUCGGGGGUGCUCCGUAACGGCCGACAUGAGAG [SEQ ID NO:3]	0.5 pM
GGGACACAAUGGACGGCUGGUAAGGUGCUCGGAAUGGAACUCGUCAUUCGGAACUUAACGGCCGACAUGAGAG [SEQ ID NO:6]	3000 pM
GGGACACAAUGGACGGGUGUUACAGGUGCUUGAUAAAGGUAGAAAAUCAAACUGUAACGGCCGACAUGAGAG [SEQ ID NO:7]	1 pM
GGGACACAAUGGACGUCAAAGAAGAGGUGCUCUGCGAGCCACGCGGAACUCUAUAACGGCCGACAUGAGAG [SEQ ID NO:2]	7400 pM
